From patent US20220135940A1, “METHOD FOR PRODUCING KIDNEY STRUCTURE HAVING DENDRITICALLY BRANCHED COLLECTING DUCT FROM PLURIPOTENT STEM CELLS” (NATIONAL UNIVERSITY CORPORATION KUMAMOTO UNIVERSITY, priority 2018, published 2022)

Assays:
Assay type in all cases: cell-based
mouse ES cells [1] = experiment: Induction of CXCR4+/KIT+ WD progenitors from mouse ES cells, FACS at day 6.25; settings: Bmp4 in procedure 2, activin A in procedure 1
Method: (§1) ES cells were differentiated in a serum-free medium as follows. The ES cells were dissociated with Accutase™ (ESGRO) and cultured in a serum-free mouse ES cell differentiation medium. The harvested cells were aggregated in a 96-well U-bottom low cell binding plate at 1,000 cells per aggregate to form embryonic bodies (EBs). After 48 hours (day 2), the EBs were dissociated with Accutase and re-aggregated in a serum-free differentiation medium supplemented with 10 ng/mL human activin A (R & D) (Procedure 1). After 24 hours (day 3), the medium was replaced with a medium containing 0.3 ng/mL human Bmp4 (R & D) and 10 μM CHIR 99021 (Procedure 2). After 36 hours (day 4.5), the medium was replaced with procedure 3 medium containing 0.1 μM retinoic acid, 100 ng/mL human Fgf9 and 10 μM SB431542 (Wako). On day 5.5 (24 hours later), the medium was replaced with a medium containing 0.1 μM retinoic acid, 100 ng/mL human Fgf9 and 5 μM CHIR99021 (“Procedure 4 medium”). The differentiation factors of the Hoxb7-GFP ES cell line are shown in the table below together with the differentiation factors of the Osr1-GFP ES cell line.
On day 6.25, the induced spheroids were harvested and dissociated by incubating in 0.25% trypsin/EDTA at 37° C. for 6 minutes. After blocking in normal mouse serum, cell surface marker (CXCR4/KIT) staining was carried out in a buffer containing 1% BSA, 1×HBSS and 0.035% NaHCO3. The FACS-sorted 3,000 Hoxb7-GFP+/CXCR4+/KIT+ cells were aggregated in a V-bottom 96-well low cell binding plate to form spheroids. Subsequently, these were cultured using the above E8.75 embryonic tissue culture conditions.
(§2) Cell aggregates induced from embryonic tissue or mouse ES cells/human iPS cells were dissociated and blocked with normal mouse serum and then cell surface marker staining was carried out in a buffer containing 1% BSA, 1×HBSS and 0.035% NaHCO3. Data analysis was performed with FlowJo software (Treestar).

human iPS cells [2] = experiment: Induction of ITGA8+/PDGFRA- nephron progenitor cells from human iPS cells, FACS at day 12; settings: epiblast patterning stage, absence of Bmp4
Method: The previously reported protocol (Taguchi 2014 above) was modified and applied. In the presence of 10 μM Y27632 and 1 ng/mL human activin A, cells were reaggregated at 10,000 cells per aggregate in a V-bottom 96-well low cell binding plate, to form embryonic bodies (EBs). After 24 hours (day 1), the aggregates were transferred to a U-bottom 96-well low cell binding plate containing the mesoderm-inducing medium containing 10 μM CHIR. Subsequently, half of the culture medium was replaced with a fresh medium every other day (day 3 and day 5). On day 7, the medium was replaced with ABC3R medium containing 10 ng/mL human activin A, 3 ng/mL human Bmp4, 3 μM CHIR and 0.1 μM retinoic acid. On day 9, the medium was replaced with ClF medium containing 1 μM CHIR and 5 ng/mL human Fgf9.
as §2
Next, the optimal time window for inducing anterior or posterior intermediate mesoderm from the nascent mesoderm was examined. […]

human iPS cells [3] = experiment: Induction of CXCR4+/KIT+ WD progenitors from human iPS cells, FACS at day 6.25; settings: epiblast patterning stage (day 0 to day 1), combination of activin A and Bmp4
Method: Cells were reaggregated at 10,000 cells per aggregate in a V-bottom 96-well low cell binding plate using a medium containing 10 μM Y27632 and 10 ng/mL human activin A and 1 ng/mL human Bmp4 (“Procedure 1 medium”), to form embryonic bodies (EBs). After 24 hours (day 1), the aggregates were transferred to a U-bottom 96-well low cell binding plate containing a medium containing 10 μM CHIR and 1 ng/mL human Bmp4 (“Procedure 2 medium”). After 36 hours (day 2.5), the medium was replaced with a medium containing 0.1 μM retinoic acid, 100 ng/mL human Fgf9, 100 nM LDN193189 and 100 μM SB431542 (“Procedure 3 medium”). On day 4.5, the medium was replaced with a medium containing 0.1 μM retinoic acid, 5 μM CHIR, 100 ng/mL human Fgf9 and 30 nM LDN193189 (“Procedure 4 medium”).
On day 6.25, the induced spheroids were harvested and dissociated by incubating in 0.25% trypsin/EDTA for 6 minutes at 37° C. After blocking in normal mouse serum, cell surface marker (CXCR4/KIT) staining was carried out in a buffer containing 1% BSA, 1×HBSS and 0.035% NaHCO3. The FACS-sorted 5,000 of CXCR4+/KIT+ cells were seeded in a V-bottom 96-well low cell binding plate and precipitated by the centrifuge (210 G for 4 minutes). The supernatant was replaced with a medium containing 10 μM Y27632, 0.1 μM retinoic acid, 1 μM CHIR, 5 ng/mL human Fgf9, 100 ng/mL human Fgf1, 10 nM LDN193189 and 10% growth factor reduced Matrigel (“Procedure 5 medium”). On day 8.5, the spheroids were transferred to a medium containing 10 μM Y27632, 0.1 μM retinoic acid, 3 μM CHIR, 5 ng/mL human Fgf9, 1 ng/mL human GDNF, 100 ng/mL human Fgf1, 10 nM LDN193189 and 10% growth factor reduced Matrigel (“Procedure 6 medium”). On day 10.5, the spheroids were transferred to a medium containing 10 μM Y27632, 0.1 μM retinoic acid, 3 μM CHIR, 2 ng/mL human GDNF, 100 ng/mL human Fgf1, 10 nM LDN193189 and 10% growth factor reduce Matrigel (“Procedure 7 medium”).
as §2
Next, the optimal time window for inducing anterior or posterior intermediate mesoderm from the nascent mesoderm was examined. Since the nascent mesoderm population is maintained by the high concentrations of Wnt agonists, the incubation period with Wnt agonists was varied and the subsequent differentiation was applied with conditions specific to the UB or metanephric nephron progenitor cell lineage. The induction efficiency of CXCR4+/KIT+ WD progenitor or ITGA8+/PDGFRA− nephron progenitor cell fraction was examined at day 6.25 or day 12, respectively. […]

mouse ES cells [4] = experiment: AIM induction from mouse ES cells (procedure 3), AIM marker expression; settings: Fgf9 at high concentrations
Method: as §1
Harvested spheroids or cells were homogenized, and total RNA was isolated using RNeasy Plus Micro Kit (Qiagen), and then a reverse-transcribed with random primers and Superscript III (Invitrogen). Quantitative PCR was carried out using Real-Time PCR system (Takara Bio) and Thunderbird SYBR qPCR Mix (Toyobo). With normalized by β-actin gene, relative mRNA expression levels were analyzed.
Next, signaling for the AIM differentiation procedure was hypothesized, which is partially different from that for PIM, based on the gene expression profile minimally conserved, between anterior intermediate mesoderm (AIM) (Osr1+, Pax2+, Pax8+, Emx2+, Lhx1+, Gata3+) and posterior intermediate mesoderm (PIM) (Osr1+, Wtl+, Hoxll+) (Procedure 3 in FIG. 2).

B1: activin A: homodimer of two inhibin BA chains (protein, UniProt P08476 311-426, looked up)
Inhibin beta A chain: GLECDGKVNICCKKQFFVSFKDIGWNDWIIAPSGYHANYCEGECPSHIAGTSGSSLSFHSTVINHYRMRGHSPFANLKSCCVPTKLRPMSMLYYDDGQNIIKKDIQNMIVEECGCS
modifications: Inhibin beta A chain
notes: homodimer of two inhibin BA chains
Mouse ES cells [1]
  UB induction versus MM induction, concentration dependence: higher concentration of activin A was preferred for UB induction
Human iPS cells [2]
  concentration at which induction of nephron progenitor cells was maximized: 1 ng/mL
Human iPS cells [3]
  concentration at which WD progenitor induction peaked: 10 ng/mL
Mouse ES cells [4]
  induction of AIM markers: inhibitory to the induction of AIM markers
